Measured values taken from the RNAGym collection of RNA variant scans (doi:10.1073/pnas.2313332121).

B1: TPR t1 (parent)
chain: GACCAAUCUGCCCUCAGAGCUCGAGAACAUCUUCGGAUGCAGAGGAGGCAGGCUUCGGUGGCGCGAUAGCGCCAACGUCCUCAACCUCCAAUGCAUCCCACCACAUGAUGAUGCCUGAAGAGCCUUGGUUUUUUG

Variants of: B1
Assay: polymerase ribozyme fitness, log enrichment relative to wild type (log ratio); higher = more active; in vitro selection for triplet polymerase activity
How it was run: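 Each subunit of a heterodimeric triplet polymerase ribozyme was mutagenized into a library by PCR, transcribed, and subjected to one round of in vitro selection, run in triplicate. Libraries were annealed with a biotinylated primer, the partner subunit and triplets, incubated frozen at −7 °C, and extended constructs were gel-excised, captured on streptavidin beads and recovered by RT-PCR. Input and output libraries were sequenced on Illumina, keeping genotypes with ≥10 input reads and ≥1 read per output. Fitness is log base 2 of genotype enrichment divided by wild-type enrichment, from inverse-variance-weighted replicate averages.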

Variant	polymerase ribozyme fitness (log ratio)
U7C C11G A27U G35U G45A U59C A84G C101U A121U	-8.13
U7C A91U G117U	-2.74
U7G A16G A18C G117U	-0.355
U7C C8G G61A C79A G110A	-2.75
U7C U14G G48U	-2.35
U7G G10C G45U C62A C115U	-3.58
C8A A43C A46U C86U U96A	-3.85
U7C C11A C98A	-6.8
U7G G10A C15G G17A A43C C53G C97U	-4.35
U7C C20G	-4.91
U7G G17C G44C G77U C94A	-6
C8A A74U C104A C124G	-0.357
U7C G17A A41G G52U	-3.17
U7G G42A G71A	-2.58
U7G G39U C49U	-0.696
U7G C70U	-0.201
U7A U112A	1.69
U7G G36U C80U U92G C123U	-4.24
U7G C12A U32A C73U G113A G120U	-4.58
C8A C12A C34U G39C G61U C85A	-7.04
U7C G71A	-0.421

Variant	polymerase ribozyme fitness (log ratio)
U7C G44U	-0.497
U7G G10C G45A G47A U59G A66C G77A	-2.15
U7C C85A C104U U116C	-1.6
U7G C49A C70U C85G U130A	-2.22
C8A A43U G71C	-2.95
U7C A74C C98U U112A	-2.74
C8A C15A A29U G42U C72G C114U	-4.6
U7G U133A	0.128
U7C A37G G57A C62U	-5.38
U7C C13G	0.00167
U7C C13U	0.52
C8A A18C	-1.93
U7G C64U	0.622
C8A A50G A95C	0.286
C8A C12U A16U C40A C62U U87A	-1.51
U7C C11U	0.539
U7G C31U G60A	-4.97
C8A C12U A43U G51U C56U U81C C85A C97A A111G	-6.23
U7G A18G C20A A43G C72G	-5.03
U7G A50U G117C	-3.6
U7G A27G G48C	-0.78

Variant	polymerase ribozyme fitness (log ratio)
U7C G77C	-0.0984
U7G C15G C88G U96A A108G C124A	-5.93
U7C A27G A46U G48U U59G G60U	-3.46
U7C U14A C22U G47U C56G G60A G120U	-7.5
C8A A119G U126G	-0.311
C8A A27C C28U	-4.62
U7G U9A G60U C82U	0.122
U7G G52U G57C C102A A111C	-2.69
U7G G45C G77A C82A C98A	-6.73
U7G G45C G135U	-0.606
U7G A41C C114G	-0.902
U7C U131A	0.00611
U7G C8U G61A A90U A121C	0.312
U7G C72A A105U U125G	-2.26
U7G C8U C15U G17A A50G	-3.01
U7C G52U C98U C124A	-0.108
U7C G17A A24G A26C C49A C56U C73G U87C G113A	-7
U7G A18G U38G A50C C53U G113U	-2.37
U7C G60A C89G U130G	-1.83
U7C G17U C31U A95C C123U	-6.24
C8A A43G C70U	-2.74

Variant	polymerase ribozyme fitness (log ratio)
U7C C73A C101U	0.14
U7G A16C U55G C88U A95U	-1.79
U7G C76U	0.285
C8A C12A	0.497
C8A C12U	-0.964
U7G C20U A27U G47C G113A	-4.53
U7G C70U A105G	-3.6
U7C G42A C76U C101U G120C C123A	-3
U7C U14G A74C	-1.29
U7G G69C A100U	-2.07
U7G C124U	1.55
U7G G63A	0.0919
U7G A37U G47U U67G C70U	-7.04
U7C C98U U112A	-1.84
C8A C13A C49G C124G	1.1
U7G G65U C72U C73U U112G	-6.23
U7G A74U A118U	0.595
U7G C12U C20A C72U	-1.43
U7G G69A	-2.34
U7G G69C	-0.478
